{
  "source": "patent US12227742B2",
  "about": "“Nucleic acid modifiers” (THE BROAD INSTITUTE, INC., priority 2017, dated 2025)",
  "molecules": {"B1": {"name": "St3Cas9: Streptococcus thermophilus CRISPR-3 Cas9 (protein, UniProt G3ECR1 1-1409, looked up)", "CRISPR-associated …": "MLFNKCIIISINLDFSNKEKCMTKPYSIGLDIGTNSVGWAVITDNYKVPSKKMKVLGNTSKKYIKKNLLGVLLFDSGITAEGRRLKRTARRRYTRRRNRILYLQEIFSTEMATLDDAFFQRLDDSFLVPDDKRDSKYPIFGNLVEEKVYHDEFPTIYHLRKYLADSTKKADLRLVYLALAHMIKYRGHFLIEGEFNSKNNDIQKNFQDFLDTYNAIFESDLSLENSKQLEEIVKDKISKLEKKDRILKLFPGEKNSGIFSEFLKLIVGNQADFRKCFNLDEKASLHFSKESYDEDLETLLGYIGDDYSDVFLKAKKLYDAILLSGFLTVTDNETEAPLSSAMIKRYNEHKEDLALLKEYIRNISLKTYNEVFKDDTKNGYAGYIDGKTNQEDFYVYLKNLLAEFEGADYFLEKIDREDFLRKQRTFDNGSIPYQIHLQEMRAILDKQAKFYPFLAKNKERIEKILTFRIPYYVGPLARGNSDFAWSIRKRNEKITPWNFEDVIDKESSAEAFINRMTSFDLYLPEEKVLPKHSLLYETFNVYNELTKVRFIAESMRDYQFLDSKQKKDIVRLYFKDKRKVTDKDIIEYLHAIYGYDGIELKGIEKQFNSSLSTYHDLLNIINDKEFLDDSSNEAIIEEIIHTLTIFEDREMIKQRLSKFENIFDKSVLKKLSRRHYTGWGKLSAKLINGIRDEKSGNTILDYLIDDGISNRNFMQLIHDDALSFKKKIQKAQIIGDEDKGNIKEVVKSLPGSPAIKKGILQSIKIVDELVKVMGGRKPESIVVEMARENQYTNQGKSNSQQRLKRLEKSLKELGSKILKENIPAKLSKIDNNALQNDRLYLYYLQNGKDMYTGDDLDIDRLSNYDIDHIIPQAFLKDNSIDNKVLVSSASNRGKSDDFPSLEVVKKRKTFWYQLLKSKLISQRKFDNLTKAERGGLLPEDKAGFIQRQLVETRQITKHVARLLDEKFNNKKDENNRAVRTVKIITLKSTLVSQFRKDFELYKVREINDFHHAHDAYLNAVIASALLKKYPKLEPEFVYGDYPKYNSFRERKSATEKVYFYSNIMNIFKKSISLADGRVIERPLIEVNEETGESVWNKESDLATVRRVLSYPQVNVVKKVEEQNHGLDRGKPKGLFNANLSSKPKPNSNENLVGAKEYLDPKKYGGYAGISNSFAVLVKGTIEKGAKKKITNVLEFQGISILDRINYRKDKLNFLLEKGYKDIELIIELPKYSLFELSDGSRRMLASILSTNNKRGEIHKGNQIFLSQKFVKLLYHAKRISNTINENHRKYVENHKKEFEELFYYILEFNENYVGAKKNGKLLNSAFQSWQNHSIDELCSSFIGPTGSERKGLFELTSRGSAADFEFLGVKIPRYRDYTPSSLLKDATLIHQSVTGLYETRIDLAKLGEG"}, "B2": {"name": "SaCas9 T787A (protein, UniProt J7RUA5 1-1053, looked up, variant T787A)", "CRISPR-associated …": "MKRNYILGLDIGITSVGYGIIDYETRDVIDAGVRLFKEANVENNEGRRSKRGARRLKRRRRHRIQRVKKLLFDYNLLTDHSELSGINPYEARVKGLSQKLSEEEFSAALLHLAKRRGVHNVNEVEEDTGNELSTKEQISRNSKALEEKYVAELQLERLKKDGEVRGSINRFKTSDYVKEAKQLLKVQKAYHQLDQSFIDTYIDLLETRRTYYEGPGEGSPFGWKDIKEWYEMLMGHCTYFPEELRSVKYAYNADLYNALNDLNNLVITRDENEKLEYYEKFQIIENVFKQKKKPTLKQIAKEILVNEEDIKGYRVTSTGKPEFTNLKVYHDIKDITARKEIIENAELLDQIAKILTIYQSSEDIQEELTNLNSELTQEEIEQISNLKGYTGTHNLSLKAINLILDELWHTNDNQIAIFNRLKLVPKKVDLSQQKEIPTTLVDDFILSPVVKRSFIQSIKVINAIIKKYGLPNDIIIELAREKNSKDAQKMINEMQKRNRQTNERIEEIIRTTGKENAKYLIEKIKLHDMQEGKCLYSLEAIPLEDLLNNPFNYEVDHIIPRSVSFDNSFNNKVLVKQEENSKKGNRTPFQYLSSSDSKISYETFKKHILNLAKGKGRISKTKKEYLLEERDINRFSVQKDFINRNLVDTRYATRGLMNLLRSYFRVNNLDVKVKSINGGFTSFLRRKWKFKKERNKGYKHHAEDALIIANADFIFKEWKKLDKAKKVMENQMFEEKQAESMPEIETEQEYKEIFITPHQIKHIKDFKDYKYSHRVDKKPNRELINDALYSTRKDDKGNTLIVNNLNGLYDKDNDKLKKLINKSPEKLLMYHHDPQTYQKLKLIMEQYGDEKNPLYKYYEETGNYLTKYSKKDNGPVIKKIKYYGNKLNAHLDITDDYPNSRNKVVKLSLKPYRFDVYLDNGVYKFVTVKNLDVIKKENYYEVNSKCYEEAKKLKKISNQAEFIASFYNNDLIKINGELYRVIGVNNDLLNRIEVNMIDITYREYLENMNDKRPPRIIKTIASKTQSIKKYSTDILGNLYEVKSKKHPQIIKKG"}},
  "key": {"target DNA [1]": {"system": "target DNA", "assay": "SpCas9 DNA cleavage activity, mutational analysis", "format": "biochemical", "conditions": "5′-NGG PAM (5′-GGGCT)"}, "target DNA [2]": {"system": "target DNA", "assay": "SaCas9 DNA cleavage activity, mutational analysis", "format": "biochemical"}},
  "data": [
    {"molecule": "B1", "values": [
      {"measurement": "cleavage of target DNA with 5′-NGG PAM", "setting": "target DNA [1]", "value": "not"}
    ]},
    {"molecule": "B2", "values": [
      {"measurement": "DNA cleavage activity", "setting": "target DNA [2]", "value": "reduced DNA cleavage activity"}
    ]}
  ]
}
